Data from PMC4877568, “Structure-based site-directed photo-crosslinking analyses of multimeric cell-adhesive interactions of voltage-gated sodium channel β subunits” (Scientific Reports, 2016).

Target: the molecule itself
Assay: crystal structure; X-ray crystallography of β4ex; antiparallel contacts between β4ex molecules in the crystal lattice; crystals from 30% (w/v) PEG 1500, sitting drop, 20 °C

B1: mouse β4 subunit extracellular domain fragment (domain or fragment, UniProt Q7M729 30-160, looked up)
chain: SLEVSVGKATTIYAINGSSILLPCTFSSCYGFENLYFKWSYNNSETSRILIDGIVKNDKSDPKVRVKDDDRITLEGSTKEKTNNISILLSDLEFSDTGRYTCFVRNPKEKDLNNSATIFLQVVDKLEKVDN
notes: voltage-gated sodium channel β4 subunit, mouse, residues 30-160; amino acid numbering starts from the initiator methionine; His tag removed by TEV protease; contains all three Cys residues; also called β4ex; β4 extracellular domain; source: Escherichia coli cell-free method, purified (HisTrap, TEV cleavage, Mono Q, Superdex 75); not shown: histidine tag, N-terminal, cleaved
B1: binds.
